Reference: the domain aggregation screens of Martell et al. (2025)

Assay: soluble fraction after stress (log2 fold change); higher = more stays soluble; pooled small domains, quantitative proteomics
Conditions: stress: 50 degC
Outline: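 The stress applied to every library was 50°C. These custom libraries of small protein domains were pooled and measured at high throughput with quantitative proteomics as the read-out. Aggregation propensity is expressed as the base-two logarithm of the fold change in how much of each protein remains soluble. The higher the value, the more of that protein stays in solution.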

| Sequence | soluble fraction (log2) |
| --- | --- |
| HMVTKTTYAYERLKREIMDGTLGQGEKLVVNAISQRYQVSPMPIREALLKLEQEGLVQSAPHRGAWVHK | -0.345 |
| HMVTNELFGTRLRAFRKEKGLTIEQLAERVGLSPNYLGDIERGKKLPSMATFIRLVNELDISADEL | -0.293 |
| HMVTQVDYGTFLTRIDEGKVKSVEIQDNQIAFTAIDEAGKENIYVTGKVNDPELVDRLLAADIEDFSQVIP | 0.12 |
| HMVTTTEAAKMLLVNAGHDVIKDGLTGASWASNTMKLADADGLLASVATKPNDALPRQYAAQMIYN | 0.076 |
| HMVVANTAIKSELQNIVANENKQAPLSDQKIVDQLKQAGFDISRRTVVKYRDALGIPTSRNRKR | -0.131 |
| HMVVEGMQFDRGYLSQYMVTDNEKMVADLENPYILITDKKISNIQEILPLLESILQSSRPLLIIADD | -0.214 |
| HMVVGYRYVTNVANAVNFRQKPSASSTIITTIPYGTRIGYVEDANSEYARVKYDNMYGYVAKFYLSNYSPP | -3.27 |
| HMVVLNQEQIKFIDHYLQVSKVRYVDVRSELTDHIATAVELKMQDEALDFYEAFKAFIAVNKSQLLQRN | -1.45 |
| HMVVNERIKKLRRSLDLTQQEFADRIGVKRNTIANYEIGRNEPIDSVLELIVREFGVSKQWLLDGTGEMF | -0.55 |
| HMVVPRSFKYEVLAHGGWAGNAQRYQTKEEALHAGLALSRRWTAVEDYRAVPSDDLPNQPAL | -0.259 |
| HMVVPSNPDELKGSFSLAEVASGYGLEVAAILEKAGWPADTDPNVKMRDAANAIGRDSTDIRNAVKALLKS | -0.0505 |
| HMVVVPPPATPKPGDVTGDNKINGYDLSILLSNWKRPGATLAQGDLNKDGVVNGLDLSIMLLNWG | -0.0393 |
| HMVVYDAELLLNINPGMSYEEVKEMLGDPGMIIAGNDAENSVYRWSTGGISFMGRFENGALIRKSIISP | -0.621 |
| HMVWNVEQIKRAVDQLPDGYRVVFTLYLFEGYDHREIADILGISEGGSKSQFNRAKSKLKEILTAMS | -1.98 |
| HMVWTAGEVVERIRERVGHPATIRELMQVLTIPPEDRHRFRRRIMQLVEAGELIRIRGNRYGLAD | -2.3 |
| HMVYNGYYAKSFNGYVVILNGDEKTVYEYTQIPIHLLPEDIRSSVMSGYYLENETDLYNFLENYS | -0.822 |
| HMWAVDFVLLDKDDQRIGNAVAYRDDRTKGMDEEVYRTVPEEELYASTGIQKQIFNSIYQLMAWKK | 0.0151 |
| HMWDRFGELDSAEEINRIAAAELREGDIDALKVLAEENGLDKDDVEDYIDRLIDELTTPELAAIGKLDV | 0.0934 |
| HMWKQISSEAELLPAVRSVIQANPGEAEKLRNGEMAPLEFLTGLVMKKTNGMAVPQIVKTLIKKELKI | 0.00479 |
| HMWKSEAGKKIIESLAQKYNKSNAQIILRWHIQMGYIVIPGARSENHIKENINIFDFKLTNEEINNILKLN | -0.345 |
| HMWMTAQDFRNSSLPWSATTSYNEGQSVRVVDGSNTYYYIAIVKTQPGQSPTTHPTSWREVDA | -0.99 |
| HMWNLPDPVVRPEGNVTVYENFKNTVEVLNREADLVLKFLQNEFGTSANIDDTGRARLTGSFSTDRVSSVI | -0.214 |
| HMWSNTAVIDRIRQLHEEGQPISSQSVQVNHKSLYMAAIKRFRGWKRAVEAAGIDYRQIRLR | -1.92 |
| HMWWTPIILRDALFGVQRFEDFQKNLDVSRATLSSRLTRLVDEGLMEKVEYQQHPVRHEYVLTEKGR | -0.108 |
| HMYAGTWTTESGQWKYRQDDGTYAKGWLQDTDGRWYYFDANGRMLSNTATPDGYQVGEDGAWVNH | -0.196 |

| Sequence | soluble fraction (log2) |
| --- | --- |
| HMYAMTAEDWIVSGNRKYINDDLQGAIADYTKAIEIDPNYAAIYLVRGKAKYELKNYQGAIEDYTKAIE | -1.13 |
| HMYAPKIETIQVPQDKIREVIGTGGKVIREIVETTGAKIDIGDTGLIKVASSDGEAIRAALDWINSIVAE | 0.117 |
| HMYATQLLQLEEMGFFDRAENIRALRATNGNVNAAVERL | 0.0407 |
| HMYDASELNKALEEAKKLDLNNYTEESSEALKNAISKAEEALLSKDKETINSALEELNKAMDSL | 0.112 |
| HMYDEAAIRKAVMTFVTDNRDERLDLAKISAVLTSKFGNINFDELGYKRFSSFIDSFPELRRNNTFVSLR | -0.312 |
| HMYDFGVILQKLRKEKGFTQEQLARLIHKESSIISRYEKGLQNPTFETVKEFAAIFNVSMDYLAG | -1.25 |
| HMYEGNEFSSTGMFREDILAITAVHPMREDAVTELLARSNESEETLEMMIDEELLRRVAYGNHNYYMRRFR | -0.428 |
| HMYEHLKALRESLGMTQAEFGESVGVAKSTYNNYEIGARDPKSDFWIAVAQRYGVTIDYLMGFSDDPKKT | -1.65 |
| HMYELSDTEWKIIEQVGLGASNKEIAASLHFSEGTIRNYLSVILDKLSLRDRTQLAILYVKMN | -0.058 |
| HMYEPPTEDEKRVLSLLATRESIVRSDVDRLLGVSQSTANRILKQMIEKYLISQEGTGKNTKYIK | -0.0391 |
| HMYESAMSDLHARIMSSDDPHGEIYKMLTQSGPEAKYIQDMYNETSIDRGLHPDDDFEDIIDAMVAELDD | -0.479 |
| HMYEVVPNMKGLSYEQAATALRTAGLEPELSDSIYDDKTRPGTVLEQSPRANTKVKPGRTVYLTVNAF | 0.0459 |
| HMYFFNTFTQRLFDNPELTQEEAIRQMYPGISGVQTAEKLQENFMADVYIQAAIRQEIVVQLIR | -0.529 |
| HMYGSLGEYELAAVQWIYGKGKITTRELSSLIGKGLTLSSKTLRGLAAKGILEWHGNSKNDPSQFYSLP | -2.39 |
| HMYHADLIGLEARSTAGDKLGEVNAVYNFGAGDLIEIKMTDGNLEMLPFTRQYVPTVSIKDGFIIVQM | -0.628 |
| HMYHIYPVADNDTPKLSADRLEYSLSNALLTNKLLNIDEIKKIYNDVILDKDEDGTLELSFKS | 0.0308 |
| HMYIDANTALLAKRIQAKNGFLPLSDKSTAEEIYAEFGISKKAFKKALGALYKERLVRIGDEGVVWV | -1.79 |
| HMYINVQNARTIASFRSSLWRMHRDFTNQGYITADGLKTFLEMGKLYEDAGGNDIYHSKLLPEITALEIKY | -0.76 |
| HMYKDVVVPNTVGDSEEKAYQTLSALGLVVNITYDEDASKSDRVVTSQNPTNKTIKEGESVNIVVNKQP | 0.0711 |
| HMYKIDFAEGDRVIIKGGAFSGLRATVVSLHPEKGMAKIKVYMFGDRETLVDIEVSQLEKDK | -0.348 |
| HMYKTKVDIAYDMLMERITEGVYKPGEKLVITHISKELGISDIPVREAIRRLESEGYVKILPNQGAIVYD | -0.395 |
| HMYLGRKATLLSSISGEKMGNAEVLADGNLMSIYVKSLTGEPLSYGSTVLIIKHSEDQNFYLVQN | -2.58 |
| HMYLQKGISNGKVYLSIVHGYRDPVTKKVRRKTIRSLGYLEDLEKQYADPIKHFEAVVAKMNEEEALE | -0.517 |
| HMYLSNPTYRGDSLVDALTQIGVDASFASRRDLARKNGIENYTGSAKQNLELLQLLREGRLR | 0.374 |
| HMYLYADIYKKLEEKIKNMEVGEKLPSERAMVQEYGVSRNVLREALVLLSERGLIEIRPGKGSYVTNQQ | -0.436 |

| Sequence | soluble fraction (log2) |
| --- | --- |
| HMYNKKAYVNTNSDFLNVRSEASTESSVVDKLARGTEVNIVGNIQNGFYPIVLNEKNAWVSSDWISFEKPT | 0.227 |
| HMYNNDEIEKIQTMYNAIYQLNDIEKALIMLFLEDKSYKEIAEIMGISEGNARIKMMRTKDKLKNLISKN | -0.369 |
| HMYNNGYVNSDRVNFRKGASTNSDIYKVLDKNTSVTILDYEGDWSKVKINDTVGYVYTKYITAG | 0.134 |
| HMYNTDAMGVRIGELRRAKGLTQEAFAKTLGISAQAVSKWETGLGFPDISLLPMIAETLGTKIETLFGAE | -0.0826 |
| HMYPATGTVVTAGGHLNMRSEPDRSGAILARIPNGTALTLTGKNGDWYAATYAGRSGYVSAQYISLS | -0.0468 |
| HMYPDNSGDIQQLAQNIFRQENVSVDRDGLALISSRLGSDHAATRSEIEKLALLAGPGGTLTFETISEVLG | -0.144 |
| HMYPEDMMSLMRRALRLINHLESNRKDRHNSRQLELTESKIRRLARYYKGRGLIETEWAYKRDQLRLLV | -0.398 |
| HMYPIYDYISNMYLGKHLNAGMSLEEARGIMDEMLEKLLFDVPEEYHIDRDHFYEYLKKYYTERFSA | -1.81 |
| HMYPQLIGFKVIDEDKGEVGVVKEVSESMHQILLTVMKGKKEILIPLAEEFITKVNRHKKELFMVLPDG | 0.502 |
| HMYRLDVEISDEIKRDIDEETLSEIKGIIAEDPRPSYQNDETRIYRFTFAGREISFRVKDRTATVTEIL | -0.0821 |
| HMYRPLYQQVYDFLVKQIAAGEWGPGESLPSEQALAGRLNVSQGTVRKALDALAADSLIDRRQGKGTYVAE | -0.0221 |
| HMYRPQQEFTMRDLFQNNLNGSESASVRRDALGAELGIGYGNAKRFLERLNHYGVSREEFTAALEKLESE | -0.224 |
| HMYRSGGYTGAGKDDEEAGVVHRNEFVNTADAVRNPHVKRFLDVFNVAQKDGTIRMLNTSQILERARLDA | 0.123 |
| HMYRYGETPMVVVPDLIGRTVSDIYEEMNADFRLEKFGNGNTVISQAPKPGERVEQGSVIRVYLSGQDQ | 0.157 |
| HMYSDERLQTFMELLPFFVEELSNKHVTRYNVWQNYREAYPNGYGRSQFFFHLGQNLEAKKK | -1.17 |
| HMYSIKEFSFEVTTPGQRLDLFLSEELIGQTRSSIQNLILKKYVTVNGQVSKASYKVKTGEFISVKIPV | -3.16 |
| HMYSINKTEFGERIKSAREELKMTQTQLAQLLKTSQTTVAKYEHGEQIPRADVLATISKATGKSTDWLLFG | -0.017 |
| HMYSKQRELIMEAVFKNRVHPTAEYVYKLLKKDHPELSLGTVYRNLNYWAENNMLKKINVPGGSDRFDGT | -0.00987 |
| HMYSLGPKERSIVSFIANRPGSRSGQIAKSLQIPLPTIKRILNGLVENKVIARHGIGAGTNYVVEDQA | -0.594 |
| HMYSMSAPMPGVILEIKVAPGDQVNKGDVVMVLEAMKMKNDLHAARTGTVESIDINSGEQVKYGQVLLRFV | -0.14 |
| HMYSQIGYGSSGSDVRKLQEILNGKGYNLSVDGQFGAKTKSAVRDYQSKNGLSVDGIVGVNTWGKLT | -0.0169 |
| HMYSYNKEEVGKRIKSIRQQKGLTQESFGELFGASKGNVATWEKGISLPNASRLREIADLVSITVEELLYG | -0.346 |
| HMYTLGEESDGTVRLLELYDIIKNKNEKIFVVDELDRSLHPNLTFNFVKKYLSIENKSQLIVSTH | -0.0206 |
| HMYVKKSSFVKKSLNNYEFKITDNTNDLLIFYKGMLPDLFREEQGIVVEGLIDKNNNIVASKV | -0.0872 |
| HMYVSGVPAITSIERVSTPGRRVYAGYTTVPKVIGGMGVSILTTSRGVMTDAEARRQKVGGELLAKV | -0.0341 |
